# B1: Torsin-1A (Homo sapiens), O14656 (parent)
# chain: MKLGRAVLGLLLLAPSVVQAVEPISLGLALAGVLTGYIYPRLYCLFAECCGQKRSLSREALQKDLDDNLFGQHLAKKIILNAVFGFINNPKPKKPLTLSLHGWTGTGKNFVSKIIAENIYEGGLNSDYVHLFVATLHFPHASNITLYKDQLQLWIRGNVSACARSIFIFDEMDKMHAGLIDAIKPFLDYYDLVDGVSYQKAMFIFLSNAGAERITDVALDFWRSGKQREDIKLKDIEHALSVSVFNNKNSGFWHSSLIDRNLIDYFVPFLPLEYKHLKMCIRVEMQSRGYEIDEDIVSRVAEEMTFFPKEERVFSDKGCKTVFTKLDYYYDD
# Variants of: B1
# Settings: with toip2_human TOR1AIP2, Q8NFQ8
row,Variant,effect of a mutation on the interaction
1,MKLGRAVLGLLLLAPSVVQAVEPISLGLALAGVLTGYIYPRLYCLFAECCGQKRSLSREALQKDLDDNLFGQHLAKKIILNAVFGFINNPKPKKPLTLSLHGWTGTGKNFVSKIIAENIYEGGLNSDYVHLFVATLHFPHASNITLYKDQLQLWIRGNVSACARSIFIFDQMDKMHAGLIDAIKPFLDYYDLVDGVSYQKAMFIFLSNAGAERITDVALDFWRSGKQREDIKLKDIEHALSVSVFNNKNSGFWHSSLIDRNLIDYFVPFLPLEYKHLKMCIRVEMQSRGYEIDEDIVSRVAEEMTFFPKEERVFSDKGCKTVFTKLDYYYDD [E171Q],with no effect

# Variants of: B1
# Settings: with toip1_human TOR1AIP1, Q5JTV8
# Chain of toip1_human TOR1AIP1, Q5JTV8 (Q5JTV8 whole entry): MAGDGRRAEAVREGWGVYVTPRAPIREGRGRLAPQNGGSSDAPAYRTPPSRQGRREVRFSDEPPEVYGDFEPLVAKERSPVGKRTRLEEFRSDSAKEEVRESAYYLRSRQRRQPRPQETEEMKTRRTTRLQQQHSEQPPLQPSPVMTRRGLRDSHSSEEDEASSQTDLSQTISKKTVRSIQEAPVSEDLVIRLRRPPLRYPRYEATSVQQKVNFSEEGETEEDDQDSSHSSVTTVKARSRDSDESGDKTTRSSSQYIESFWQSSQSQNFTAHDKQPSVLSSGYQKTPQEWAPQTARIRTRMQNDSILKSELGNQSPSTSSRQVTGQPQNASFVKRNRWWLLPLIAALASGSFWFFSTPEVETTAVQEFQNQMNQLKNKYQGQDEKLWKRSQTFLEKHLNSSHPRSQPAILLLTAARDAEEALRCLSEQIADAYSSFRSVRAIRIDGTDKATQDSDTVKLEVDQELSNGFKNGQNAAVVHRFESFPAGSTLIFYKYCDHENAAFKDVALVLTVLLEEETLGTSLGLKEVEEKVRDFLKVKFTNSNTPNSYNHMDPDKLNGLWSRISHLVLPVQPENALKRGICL
row,Variant,effect of a mutation on the interaction
1,MKLGRAVLGLLLLAPSVVQAVEPISLGLALAGVLTGYIYPRLYCLFAECCGQKRSLSREALQKDLDDNLFGQHLAKKIILNAVFGFINNPKPKKPLTLSLHGWTGTGKNFVSKIIAENIYEGGLNSDYVHLFVATLHFPHASNITLYKDQLQLWIRGNVSACARSIFIFDQMDKMHAGLIDAIKPFLDYYDLVDGVSYQKAMFIFLSNAGAERITDVALDFWRSGKQREDIKLKDIEHALSVSVFNNKNSGFWHSSLIDRNLIDYFVPFLPLEYKHLKMCIRVEMQSRGYEIDEDIVSRVAEEMTFFPKEERVFSDKGCKTVFTKLDYYYDD [E171Q],with no effect
